Two molecules from paper PMC10215423, “The Diagnostic Potential of RNA Aptamers against the NS1 Protein of Dengue Virus Serotype 2” can be followed below.

For this series, the target named is NS1 (dengue virus serotype 2) (Dengue virus serotype 2, UniProt P29990 776-1127). The series can be described thus: filter binding. Conditions: protein: commercial; chain copies: 2.
Chain of NS1 (dengue virus serotype 2) (P29990 776-1127): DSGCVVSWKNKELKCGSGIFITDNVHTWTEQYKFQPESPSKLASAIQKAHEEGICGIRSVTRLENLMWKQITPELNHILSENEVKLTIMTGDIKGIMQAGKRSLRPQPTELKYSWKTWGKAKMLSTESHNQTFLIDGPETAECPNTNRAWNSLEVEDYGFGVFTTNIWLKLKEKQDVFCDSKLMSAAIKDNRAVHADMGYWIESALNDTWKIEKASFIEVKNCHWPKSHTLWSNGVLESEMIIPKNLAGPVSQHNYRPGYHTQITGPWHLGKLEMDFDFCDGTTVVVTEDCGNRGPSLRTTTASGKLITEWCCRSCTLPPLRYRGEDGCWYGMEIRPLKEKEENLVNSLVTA

B1: DENV-3 (structured_RNA)
RNA: GGAGCUCAGCCUUCACUGCUUUGAUCUCGUGGGGGUGUGUCGCGGGAGACACCAUGGAAUAUAUGGCUGAUUUCAUGUGGGCACCACGGUCGGAUCCAC
As to B1, the Kd stood at 37.6 ± 10.3 nM.

B2: DENV-6 (structured_RNA)
RNA: GGAGCUCAGCCUUCACUGCCGUAGUCGUAUCUCCAUUACCCAGAAUGGUGAUGCGCCGUGAAGAGCGGUUUAGGGAAUUGGCACCACGGUCGGAUCCAC
In turn, B2 gave a Kd of 41.4 ± 9.29 nM.

As a reminder, the Kd is a measure of binding affinity in units of concentration. Read a high Kd as a looser complex.
